What was measured:
[1] = target: T1, rHuman EGF R/Fc Chimera, CF (R&D Systems Cat#344-ER) (human, UniProt P00533 25-645); experiment: MSD Multispot ECL, antigen spotted on plate, Fab in solution; blank spot of the row 240
T1 construct: Bought recombinant Fc chimera; also called epidermal growth factor receptor; Fc part of the bought chimera not given

[2] = target: T2, rHuman HGF R/c-MET/Fc Chimera, CF (R&D Systems Cat#358-MT/CF) (human, UniProt P08581 25-932); experiment: as above
T2 construct: Bought recombinant Fc chimera; also called HGF R/Fc; hepatocyte growth factor receptor; Fc part of the bought chimera not given

[3] = target: T3, rHuman Notch-1/Fc Chimera, CF (R&D Systems Cat#3647-TK) (human, UniProt P46531 19-526); experiment: as above
T3 construct: Bought recombinant Fc chimera; Fc part of the bought chimera not given

[4] = target: T4, rHuman P-Cadherin/Fc Chimera, CF (R&D Systems Cat#861-PC) (human, UniProt P22223 108-654); experiment: as above
T4 construct: Bought recombinant Fc chimera; Fc part of the bought chimera not given

[5] = target: T5, rHuman Erythropoietin R/Fc Chimera, CF (R&D Systems Cat#963-ER) (human, UniProt P19235 25-250); experiment: as above
T5 construct: Bought recombinant Fc chimera; also called EPO R; EPO R/Fc; Fc part of the bought chimera not given
T5 sequence (looked up): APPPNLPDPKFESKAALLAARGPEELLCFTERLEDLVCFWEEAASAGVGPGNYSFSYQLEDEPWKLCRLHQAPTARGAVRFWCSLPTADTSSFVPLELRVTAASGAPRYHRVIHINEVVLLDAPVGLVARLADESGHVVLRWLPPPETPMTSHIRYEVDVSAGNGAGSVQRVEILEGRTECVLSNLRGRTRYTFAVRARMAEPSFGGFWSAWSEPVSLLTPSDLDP

[6] = target: T6, Recombinant Human DLL4 (R&D Systems Cat#1506-D4/CF) (human, UniProt Q9NR61 27-524); experiment: as above
T6 construct: Bought recombinant protein; also called delta-like protein 4; Delta-like 4

[7] = target: T1, rHuman EGF R/Fc Chimera, CF (R&D …); experiment: MSD Multispot ECL, antigen spotted on plate, Fab in solution; blank spot of the row 424
[8] = target: T2, rHuman HGF R/c-MET/Fc Chimera, CF (R&D …); experiment: as above
[9] = target: T3, rHuman Notch-1/Fc Chimera, CF (R&D …); experiment: as above
[10] = target: T4, rHuman P-Cadherin/Fc Chimera, CF (R&D …); experiment: as above
[11] = target: T5, rHuman Erythropoietin R/Fc Chimera, CF …; experiment: as above
[12] = target: T6, Recombinant Human DLL4 (R&D Systems …); experiment: as above
[13] = target: T7, Recombinant Human DLL4 (R&D Systems Cat#1506-D4/CF) (human, UniProt Q9NR61 27-524); experiment: ECL (MSD) multispot binding assay, antigen spotted on the plate, Fab in solution; blank spot of this well 213
T7 construct: Bought recombinant protein; also called rHuman DLL4; delta-like protein 4

[14] = target: T8, rHuman P-Cadherin/Fc Chimera, CF (R&D Systems Cat#861-PC) (human, UniProt P22223 108-654); experiment: as above
T8 construct: Bought reagent; Fc part of the bought chimera not given

[15] = target: T9, rHuman Erythropoietin R/Fc Chimera, CF (R&D Systems Cat#963-ER) (human, UniProt P19235 25-250); experiment: as above
T9 construct: Bought reagent; also called EPO R/Fc; EPO R; Fc part of the bought chimera not given
T9 sequence (looked up): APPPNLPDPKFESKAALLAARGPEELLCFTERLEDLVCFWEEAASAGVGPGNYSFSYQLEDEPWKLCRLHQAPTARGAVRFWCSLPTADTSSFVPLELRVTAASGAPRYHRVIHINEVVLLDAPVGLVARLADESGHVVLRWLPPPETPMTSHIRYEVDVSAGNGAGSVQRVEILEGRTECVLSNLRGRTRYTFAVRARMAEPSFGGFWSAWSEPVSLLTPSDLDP

[16] = target: T10, Recombinant Human DLL4 (delta-like protein 4) (human, UniProt Q9NR61 27-524); experiment: ELISA, DLL4 coated on plate
T10 construct: Bought recombinant protein (R&D Systems Cat#1506-D4/CF); also called rHuman DLL4

[17] = target: T11, rHuman P-Cadherin/Fc Chimera (human, UniProt P22223 108-654); experiment: ECL (MSD) multispot assay, antigen spotted; blank spot of this row 236
T11 construct: R&D Systems Cat#861-PC; not shown: Fc of the bought R&D Systems chimera

[18] = target: T10, Recombinant Human DLL4 (delta-like …); experiment: as above
rHuman EGF R/Fc Chimera [19] = target: T12, rHuman EGF R/Fc Chimera (human, UniProt P00533 25-645); experiment: as above
T12 construct: not shown: Fc of the bought R&D Systems chimera

[20] = target: T10, Recombinant Human DLL4 (delta-like …); experiment: ECL (MSD) multispot binding assay; value equals DLL4 signal over blank of Table 91
[21] = target: T13, rHuman Notch-1/Fc Chimera (human, UniProt P46531 19-526); experiment: ECL (MSD) multispot assay, antigen spotted; blank spot of this row 223
T13 construct: R&D Systems Cat#3647-TK; not shown: Fc of the bought R&D Systems chimera

[22] = target: T11, rHuman P-Cadherin/Fc Chimera; experiment: as above
rHuman EGF R/Fc Chimera [23] = target: T12, rHuman EGF R/Fc Chimera; experiment: as above
[24] = target: T1, rHuman EGF R/Fc Chimera, CF (R&D …); experiment: MSD Multispot ECL, antigen spotted on plate, Fab in solution; blank spot of the row 351
[25] = target: T2, rHuman HGF R/c-MET/Fc Chimera, CF (R&D …); experiment: as above
[26] = target: T3, rHuman Notch-1/Fc Chimera, CF (R&D …); experiment: as above
[27] = target: T14, rHuman CD44/Fc Chimera, CF (R&D Systems Cat#3660-CD) (human, UniProt P16070 21-220); experiment: as above
T14 construct: Bought recombinant Fc chimera; Fc part of the bought chimera not given

[28] = target: T4, rHuman P-Cadherin/Fc Chimera, CF (R&D …); experiment: as above
[29] = target: T5, rHuman Erythropoietin R/Fc Chimera, CF …; experiment: as above
[30] = target: T6, Recombinant Human DLL4 (R&D Systems …); experiment: as above

T2 sequence (P08581 25-932, change not shown): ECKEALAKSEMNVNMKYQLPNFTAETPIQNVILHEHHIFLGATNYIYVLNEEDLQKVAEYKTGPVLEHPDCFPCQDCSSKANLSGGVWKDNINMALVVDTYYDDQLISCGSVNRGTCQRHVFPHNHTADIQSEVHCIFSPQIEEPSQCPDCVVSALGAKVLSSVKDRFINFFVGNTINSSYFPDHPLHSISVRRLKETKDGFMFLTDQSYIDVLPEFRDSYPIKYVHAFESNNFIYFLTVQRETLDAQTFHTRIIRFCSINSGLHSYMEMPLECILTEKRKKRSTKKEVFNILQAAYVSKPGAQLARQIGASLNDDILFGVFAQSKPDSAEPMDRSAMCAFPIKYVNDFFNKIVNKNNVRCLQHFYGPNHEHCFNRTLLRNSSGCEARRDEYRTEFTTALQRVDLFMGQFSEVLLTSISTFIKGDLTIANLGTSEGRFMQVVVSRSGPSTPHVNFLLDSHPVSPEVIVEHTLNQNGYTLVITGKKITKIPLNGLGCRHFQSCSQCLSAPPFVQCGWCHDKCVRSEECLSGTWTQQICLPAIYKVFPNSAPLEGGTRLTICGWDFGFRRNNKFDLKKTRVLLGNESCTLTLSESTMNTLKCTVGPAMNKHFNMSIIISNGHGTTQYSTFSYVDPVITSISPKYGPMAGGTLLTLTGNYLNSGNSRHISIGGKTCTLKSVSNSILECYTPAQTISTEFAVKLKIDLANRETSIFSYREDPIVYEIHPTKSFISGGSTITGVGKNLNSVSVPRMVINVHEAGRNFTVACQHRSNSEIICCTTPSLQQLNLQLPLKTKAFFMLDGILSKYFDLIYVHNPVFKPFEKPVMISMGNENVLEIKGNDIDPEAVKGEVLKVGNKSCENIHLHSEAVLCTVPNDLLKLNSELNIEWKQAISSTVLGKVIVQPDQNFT

B1: Fab VH5-51_IGHD5-18*01>3_IGHJ4*01 G100K/G104T (KT) & V3-4_IGLJ1*01 (Fab, V domains shown)
VH: EVQLVQSGAEVKKPGESLKISCKGSGYSFTSYWIGWVRQMPGKGLEWMGIIYPGDSDTRYSPSFQGQVTISADKSISTAYLQWSSLKASDTAMYYCARRKYSYTYDYFDYWGQGTLVTVSS
VL: QTVVTQEPSFSVSPGGTVTLTCGLSSGSVSTSYYPSWYQQTPGQAPRTLIYSTNTRSSGVPDRFSGSILGNKAALTITGAQADDESDYYCVLYMGSGISYVFGTGTKVTVL
notes: Fab made in E. coli; VH cloned into Plasmid A (CH1, His6 and Flag tags), lambda VL into Plasmid E (lambda CL); also called H:KT & L:wt; KT double mutant
ECL signal [1]: 915 | ECL signal [2]: 936 | ECL signal [3]: 507 | ECL signal [4]: 346 | ECL signal [5]: 497 | ECL signal [6]: 45100 | ECL signal [7]: 852 | ECL signal [8]: 838 | ECL signal [9]: 543 | ECL signal [10]: 319 | ECL signal [11]: 554 | ECL signal [12]: 36400

B2: Fab VH5-51_IGHD5-18*01>3_IGHJ4*01 G100K/G104T (KT) & V3-4_IGLJ1*01 (Fab, V domains shown)
VH: EVQLVQSGAEVKKPGESLKISCKGSGYSFTSYWIGWVRQMPGKGLEWMGIIYPGDSDTRYSPSFQGQVTISADKSISTAYLQWSSLKASDTAMYYCARRKYSYTYDYFDYWGQGTLVTVSS
VL: QTVVTQEPSFSVSPGGTVTLTCGLSSGSVSTSYYPSWYQQTPGQAPRTLIYSTNTRSSGVPDRFSGSILGNKAALTITGAQADDESDYYCVLYMGSGISYVFGTGTKVTVL
notes: Tested as a Fab expressed in E. coli; The heavy chain variable region was cloned into Plasmid A (CH1 constant region, His6 and Flag tags); The lambda light chain variable region was cloned into Plasmid E (lambda CL); also called H:KT & L:wt; KT double mutant
ECL signal [13]: 32700 | ECL signal [14]: 226 | ECL signal [15]: 421

B3: Fab VH5-51_IGHD5-18*01>3_IGHJ4*01 G100K/G104T S84V & V3-4_IGLJ1*01 (Fab, V domains shown)
VH: EVQLVQSGAEVKKPGESLKISCKGSGYSFTSYWIGWVRQMPGKGLEWMGIIYPGDSDTRYSPSFQGQVTISADKSISTAYLQWVSLKASDTAMYYCARRKYSYTYDYFDYWGQGTLVTVSS
VL: QTVVTQEPSFSVSPGGTVTLTCGLSSGSVSTSYYPSWYQQTPGQAPRTLIYSTNTRSSGVPDRFSGSILGNKAALTITGAQADDESDYYCVLYMGSGISYVFGTGTKVTVL
notes: Fab made in E. coli (heavy chain vector with CH1, His6 and Flag tags; lambda CL vector)
ELISA (Signal-Noise) [16]: 0.02 | ECL signal [17]: 362 | ECL signal [18]: 8890 | ECL signal (rHuman EGF R/Fc Chimera [19]): 805 | ECL signal-to-blank ratio [20]: 37.7

B4: Fab VH5-51_IGHD5-18*01>3_IGHJ4*01 G100K/G104T S84L & V3-4_IGLJ1*01 (Fab, V domains shown)
VH: EVQLVQSGAEVKKPGESLKISCKGSGYSFTSYWIGWVRQMPGKGLEWMGIIYPGDSDTRYSPSFQGQVTISADKSISTAYLQWLSLKASDTAMYYCARRKYSYTYDYFDYWGQGTLVTVSS
VL: QTVVTQEPSFSVSPGGTVTLTCGLSSGSVSTSYYPSWYQQTPGQAPRTLIYSTNTRSSGVPDRFSGSILGNKAALTITGAQADDESDYYCVLYMGSGISYVFGTGTKVTVL
notes: as for B3
ECL signal [21]: 410 | ECL signal [22]: 320 | ECL signal (rHuman EGF R/Fc Chimera [23]): 864

B5: Fab VH5-51_IGHD5-18*01>3_IGHJ4*01 G100K/G104T T30A & V3-4_IGLJ1*01 (Fab, V domains shown)
VH: EVQLVQSGAEVKKPGESLKISCKGSGYSFASYWIGWVRQMPGKGLEWMGIIYPGDSDTRYSPSFQGQVTISADKSISTAYLQWSSLKASDTAMYYCARRKYSYTYDYFDYWGQGTLVTVSS
VL: QTVVTQEPSFSVSPGGTVTLTCGLSSGSVSTSYYPSWYQQTPGQAPRTLIYSTNTRSSGVPDRFSGSILGNKAALTITGAQADDESDYYCVLYMGSGISYVFGTGTKVTVL
notes: Fab made in E. coli; VH cloned into Plasmid A (CH1, His6 and Flag tags), lambda VL into Plasmid E (lambda CL); also called KT T30A
ECL signal [24]: 853 | ECL signal [25]: 868 | ECL signal [26]: 539 | ECL signal [27]: 698 | ECL signal [28]: 438 | ECL signal [29]: 553 | ECL signal [30]: 24300
